Usually Kd stands for a measure of binding affinity in units of concentration. A lower Kd goes with a tighter complex.

These results are taken from paper PMC9065369 (Cell Reports, 2022).

The experiment concerns the target Mono ubiquitin (UniProt P0CG48 1-76). The experiment can be described thus: ITC. For orientation: In ITC the heat of successive injections is recorded.

B1: hsHDAC6 (1108-1215) (domain or fragment)
chain: TPLPWCPHLVAVCPIPAAGLDVTQPCGDCGTIQENWVCLSCYQVYCGRYINGHMLQHHGNSGHPLVLSYIDLSAWCYYCQAYVHHQALLDVKNIAHQNKFGEDMPHPH
The molecule B1 showed a Kd of 5.16 ± 0.47 µM.
